The source of these data is PMC5458078, “Global mapping of CARM1 substrates defines enzyme specificity and substrate recognition” (Nature Communications, 2017).

Experiment [1] concerns MCF7 CARM1 KO cells. The experiment is described as follows: Quantitative MS of ADMA-containing peptides in MCF7 CARM1 KO cells expressing CARM1 28-608 or CARM1 140-608, and in CARM1 KO. The format is cell-based, human. The settings on record: stable CARM1 140–608 in MCF7 CARM1 KO cells; reference CARM1 28–608; three biological replicas.
For experiment [2], the system named is GST fused MED12, BAF155 and PABP1 peptides. The experiment is described as follows: In vitro methylation of GST fused peptides by recombinant CARM1 proteins, autoradiography. The settings on record: 3H-SAM, 1–4 h, 30 °C; compared with CARM1 FL and CARM1 28–608. In kind it is biochemical. The method, then:
The FL and N-terminal domain-deleted version of human CARM1 cDNAs, and other PRMT FL cDNAs were cloned into pFN21K Halo Tag CMV Flexi mammalian expression vector (Promega, Madison, WI) using the unique Sgfl and Pmel site[55]. To express the protein, DNA constructs were transiently transfected into HEK293T CARM1 KO cells in 15 cm dishes using transIT-LT1 reagent (Mirus Bio, Madison, WI) according to the manufacturer's protocol. Proteins were allowed to express for 48 h. Cell pellets were then collected and lysed in lysis buffer (50 mM HEPES, pH 7.5, 150 mM NaCl, 0.005% NP-40, 0.5 mM EDTA, supplemented with 1 × protease inhibitor cocktail before use). The cells were sonicated on ice using a Branson Sonifier 450 with a microtip at 35% amplitude (10 s on, 30 s off, 6 cycles). The crude lysate was cleared by centrifugation (15,000 r.p.m., 4 °C, 20 min). […] The resin was centrifuged at 3,000 r.p.m. for 5 min, and the supernatant containing the cleaved protein was collected and protein concentration was determined using the Bradford assay (Thermo Scientific, Rockford, IL). Protein purity was assessed by running SDS–PAGE and Coomassie Blue staining.
The DNA fragments were cloned into pGEX-2T GST expression vector (GE Healthcare, Waukesha, WI). […] Protein concentration was then determined using Bradford assay and protein purity was assessed by SDS–PAGE and Coomassie Blue staining. […]

B1: CARM1 140–608: CARM1 140–608 lacks the first 140 residues encompassing the EVH1 domain (protein)
chain: RTEESSAVQYFQFYGYLSQQQNMMQDYVRTGTYQRAILQNHTDFKDKIVLDVGCGSGILSFFAAQAGARKIYAVEASTMAQHAEVLVKSNNLTDRIVVIPGKVEEVSLPEQVDIIISEPMGYMLFNERMLESYLHAKKYLKPSGNMFPTIGDVHLAPFTDEQLYMEQFTKANFWYQPSFHGVDLSALRGAAVDEYFRQPVVDTFDIRILMAKSVKYTVNFLEAKEGDLHRIEIPFKFHMLHSGLVHGLAFWFDVAFIGSIMTVWLSTAPTEPLTHWYQVRCLFQSPLFAKAGDTLSGTCLLIANKRQSYDISIVAQVDQTGSKSSNLLDLKNPFFRYTGTTPSPPPGSHYTSPSENMWNTGSTYNLSSGMAVAGMPTAYDLSSVIASGSSVGHNNLIPLANTGIVNHTHSRMGSIMSTGIVQGSSGAQGSGGGSTSAHYAVNSQFTMGGPAISMASPMSIPTNTMHYGS
modifications: left off: FLAG, end not stated, kept
notes: CARM1 140–608 lacks the first 140 residues encompassing the EVH1 domain
As for B1, the “Abundance of ADMA-containing peptides” value in experiment [1] is “massive reduction in abundances of ADMA-containing peptides”. Also, in experiment [2], the “Methylation of GST fused MED12, BAF155 and PABP1 peptides and other protein substrates” value is “greatly reduced ability”.
